Results: IntAct's records for PubMed 17704763

B1: Adagio protein 1 (Arabidopsis thaliana (Mouse-ear cress)), Q94BT6 (parent)
chain: MEWDSGSDLSADDASSLADDEEGGLFPGGGPIPYPVGNLLHTAPCGFVVTDAVEPDQPIIYVNTVFEMVTGYRAEEVLGGNCRFLQCRGPFAKRRHPLVDSMVVSEIRKCIDEGIEFQGELLNFRKDGSPLMNRLRLTPIYGDDDTITHIIGIQFFIETDIDLGPVLGSSTKEKSIDGIYSALAAGERNVSRGMCGLFQLSDEVVSMKILSRLTPRDVASVSSVCRRLYVLTKNEDLWRRVCQNAWGSETTRVLETVPGAKRLGWGRLARELTTLEAAAWRKLSVGGSVEPSRCNFSACAVGNRVVLFGGEGVNMQPMNDTFVLDLNSDYPEWQHVKVSSPPPGRWGHTLTCVNGSNLVVFGGCGQQGLLNDVFVLNLDAKPPTWREISGLAPPLPRSWHSSCTLDGTKLIVSGGCADSGVLLSDTFLLDLSIEKPVWREIPAAWTPPSRLGHTLSVYGGRKILMFGGLAKSGPLKFRSSDVFTMDLSEEEPCWRCVTGSGMPGAGNPGGVAPPPRLDHVAVNLPGGRILIFGGSVAGLHSASQLYLLDPTEDKPTWRILNIPGRPPRFAWGHGTCVVGGTRAIVLGGQTGEEWMLSELHELSLASYLT
partner: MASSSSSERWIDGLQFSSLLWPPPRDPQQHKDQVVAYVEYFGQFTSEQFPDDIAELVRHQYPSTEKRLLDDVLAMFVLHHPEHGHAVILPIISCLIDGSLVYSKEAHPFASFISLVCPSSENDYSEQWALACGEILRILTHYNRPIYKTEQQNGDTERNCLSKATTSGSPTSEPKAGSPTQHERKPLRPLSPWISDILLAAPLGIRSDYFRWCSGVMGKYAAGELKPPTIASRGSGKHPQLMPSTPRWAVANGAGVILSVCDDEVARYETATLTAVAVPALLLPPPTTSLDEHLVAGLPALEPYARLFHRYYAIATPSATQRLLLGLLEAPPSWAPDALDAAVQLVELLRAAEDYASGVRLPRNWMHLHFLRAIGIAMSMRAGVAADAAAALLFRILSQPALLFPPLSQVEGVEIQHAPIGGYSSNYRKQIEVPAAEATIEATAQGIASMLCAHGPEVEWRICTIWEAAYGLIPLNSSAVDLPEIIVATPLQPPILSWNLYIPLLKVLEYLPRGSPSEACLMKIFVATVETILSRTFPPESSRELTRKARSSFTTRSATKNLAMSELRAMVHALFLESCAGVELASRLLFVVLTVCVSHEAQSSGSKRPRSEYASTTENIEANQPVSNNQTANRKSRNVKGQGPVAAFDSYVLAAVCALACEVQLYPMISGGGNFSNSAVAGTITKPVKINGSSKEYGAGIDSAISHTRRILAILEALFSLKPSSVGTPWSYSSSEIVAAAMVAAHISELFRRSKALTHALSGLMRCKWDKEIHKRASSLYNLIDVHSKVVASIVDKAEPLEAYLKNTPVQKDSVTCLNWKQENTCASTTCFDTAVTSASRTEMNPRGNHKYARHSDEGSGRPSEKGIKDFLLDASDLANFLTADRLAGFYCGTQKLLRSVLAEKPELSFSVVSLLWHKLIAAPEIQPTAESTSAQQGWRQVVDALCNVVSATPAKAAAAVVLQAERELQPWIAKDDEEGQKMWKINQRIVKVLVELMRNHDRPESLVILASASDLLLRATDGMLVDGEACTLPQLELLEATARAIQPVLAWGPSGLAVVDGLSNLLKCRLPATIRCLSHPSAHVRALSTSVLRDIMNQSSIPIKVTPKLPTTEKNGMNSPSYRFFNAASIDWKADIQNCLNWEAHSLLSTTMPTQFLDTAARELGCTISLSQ

Variants of: B1
Details: with gigan_arath GI

| Variant | effect of a mutation on the interaction |
| --- | --- |
| G46E | disrupting interaction strength |
| C82A | decreasing interaction strength |
| G119D | decreasing interaction strength |
